Reference: publication PMC2613574

What was measured:
[1] = target: FNfn10 ND7N fragment displayed on the yeast surface (Aga2p fusion, FLAG tag) (human); assay: flow cytometry on cells
[2] = target: FNfn10 wild-type N fragment displayed on the yeast surface (Aga2p fusion, FLAG tag) (human); assay: flow cytometry on cells

ubiquitin fusion of the FNfn10 C fragment with the V5 tag (domain or fragment)
Kd [1]: 25.3 nM

FNfn10 C fragment, wild type, co-secreted in yeast (V5 tag) (domain or fragment)
log(B/E ratio) [2]: 1.3
